This is an account of results in patent publication US20260193326A1 (published 2026).

What is called Kd is the concentration at which binding is half-saturated. One may read the koff as the rate constant with which the complex falls apart. A lower koff goes with slow dissociation. The term kon denotes the second-order rate constant of association. A low value points to slower complex formation.

Assay in all cases: SPR, AAV amine-coupled to CM5 chip;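 also: nanobodies flowed as analyte at seven concentrations spanning 1–100 nM over immobilized AAV (500–800 RU), kinetic constants derived by fitting the binding curves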
Test [1] concerns the target T1, AAV8 (adeno-associated virus 8).
T1 construct: also called adeno-associated virus serotype 8
Experimental: (§1) AAV was amine-coupled to a CM5 sensor chip at a density of 500-800 response units (RU). Nanobodies were injected at seven concentrations (1-100 nM) with a flow rate of 45 μL/min, and chip regeneration was performed using glycine-HCl (pH 1.5). Binding curves at different nanobody concentrations were used to calculate kinetic parameters (Kₐ, Kd, KD) (Table 2 and FIG. 2).

Test [2] addresses T2, AAV9 (adeno-associated virus 9).
T2 construct: also called adeno-associated virus serotype 9
Experimental: as §1

The target of test [3] is T3, AAV5 (adeno-associated virus 5).
T3 construct: also called adeno-associated virus serotype 5
Experimental: as §1

B1: A4-070 (VHH)
VHH: VQLQESGGGLVQPGGSLRLSCAASGSIFSINSMGWYRQAPGKWRELVATVTRGGSTNYANSVKGRFTISRDNAKNTVYLQMNTLRPEDTAVYYCHLDEVRDSSWTTSNLWGQGTQVTVSS
As for B1, in test [1], the Kd turned out to be 20.9 nM, the koff worked out at 0.00019 s⁻¹ and the association rate constant (kon) was 9090 M⁻¹ s⁻¹. In test [2], this molecule yielded a Kd of 35.5 nM, a koff of 0.00012 s⁻¹ and a kon of 3380 M⁻¹ s⁻¹. Moreover, in test [3], the Kd stood at 86.8 nM, the koff stood at 0.00064 s⁻¹ and the on-rate constant (kon) was 7370 M⁻¹ s⁻¹.

B2: A4-080 (VHH)
VHH: VQLQESGGGLVQPGGSLRLSCAASGSRFSLNTMGWYRQAPGKQRELVATVTRGGSTNYADFVKGRFTISRDNAKNTVYLQMNSLRPEDTAVYYCHVDELRESGWTTSNLWGQGTQVTVSS
In test [1], B2 showed a dissociation constant (Kd) of 191 nM, a koff of 0.00138 s⁻¹ and a kon of 7220 M⁻¹ s⁻¹. In test [2], the Kd was 5.08 nM, the koff stood at 0.00074 s⁻¹ and the kon was 146000 M⁻¹ s⁻¹. Also, in test [3], the Kd was determined as 20.4 nM, the koff was determined as 0.00194 s⁻¹ and the kon stood at 95200 M⁻¹ s⁻¹.

B3: A4-082 (VHH)
VHH: VQLQESGGGLVQPGGSLRLSCAASGSRFSLNTMGWYRQAPGKQRELVATVTRGGSTKYADFVKGRFTISRDNAKNTVYLQMNSLRPEDTAVYYCHVDELRESGWTTSNLWGQGTQVTVSS
For the molecule B3, in test [1], binding was characterised by a dissociation constant (Kd) of 46.7 nM, the koff came out at 0.00017 s⁻¹ and the kon is 3640 M⁻¹ s⁻¹. In test [2], this molecule came in with a Kd of 122 nM, a koff of 0.0004 s⁻¹ and a kon of 3290 M⁻¹ s⁻¹. In test [3], this molecule yielded a Kd of 92.9 nM, a koff of 0.0005 s⁻¹ and a kon of 5380 M⁻¹ s⁻¹.

B4: A4-084 (VHH)
VHH: VQLQESGGGLVQPGGSLKLSCAASGSRFSLNTMGWYRQAPRKQREFVAAVTRGGNTNYGDFVKGRFTISRDNAKNTVYLQMNSLRPEDTAVYYCHVDELRESSWTTSNLWGQGTQVTVSS
As for B4, the figures for the Kd in test [1], in test [2] and in test [3] were 12.8 nM, 2.28 nM and 0.364 nM, respectively. Besides, the koff turned out to be 0.00177 s⁻¹ in test [1], 0.0003 s⁻¹ in test [2] and 6e-05 s⁻¹ in test [3]. Besides, the kon was 138000 M⁻¹ s⁻¹ in test [1], 132000 M⁻¹ s⁻¹ in test [2] and 165000 M⁻¹ s⁻¹ in test [3].

B5: A4-081 (VHH)
VHH: VQLQESGGGLVQPGGSLRLSCAASGSRFSLNTMGWYRQAPGKQRELVATVTRGGSTNYADSVKGRFTISRDNAKNTVYLQMNSLRPEDTAVYYCHVDELRESGWTTSNLWGQGTQVTVSS
For B5, the equilibrium dissociation constant (Kd) in test [1] turned out to be 6.05 nM; in test [2], 13.7 nM; in test [3], 12.5 nM. Besides, the dissociation rate constant (koff) in test [1] was determined as 0.00105 s⁻¹; in test [2], 0.00131 s⁻¹; in test [3] it was 0.00146 s⁻¹. For the same molecule, the kon in test [1] amounted to 174000 M⁻¹ s⁻¹; in test [2], 95900 M⁻¹ s⁻¹; in test [3] it was 117000 M⁻¹ s⁻¹.

B6: A4-095 (VHH)
VHH: VQLQESGGGLVQPGGSLRLSCAASGSSFSANTMGWYRQAPGKQRELVATITRGGNTNYGDSVKGRFTISRDNAKDTVYLQMNSLRPEDTAVYYCHIDEIRESTWTTSNLWGQGTQVTVSS
In test [1], B6 came in with a dissociation constant Kd of 2.25 nM, a koff of 0.00026 s⁻¹ and a kon of 116000 M⁻¹ s⁻¹. In test [2], this molecule had a dissociation constant Kd of 6.34 nM, a koff of 0.00114 s⁻¹ and a kon of 180000 M⁻¹ s⁻¹. In test [3], this molecule displayed a dissociation constant Kd of 14.5 nM, a dissociation rate constant (koff) of 0.00133 s⁻¹ and an on-rate constant (kon) of 91800 M⁻¹ s⁻¹.

B7: A4-085 (VHH)
VHH: VQLQESGGGLVQPGGSLRLSCAASGSRFSLNTMGWYRQAPGKQREFVAAVTRGGNTNYGDFVKGRFTISRDNAKNTVYLQMNSLRPEDTAVYYCHVDELRESSWTTSNLWGQGTQVTVSS
In test [1], B7 had a Kd of 108 nM, a koff of 0.00041 s⁻¹ and a kon of 3790 M⁻¹ s⁻¹. In test [2], binding was characterised by a dissociation constant (Kd) of 223 nM, the koff turned out to be 0.0005 s⁻¹ and the kon is 2240 M⁻¹ s⁻¹. In test [3], this molecule gave a Kd of 192 nM, a koff of 0.00191 s⁻¹ and a kon of 9940 M⁻¹ s⁻¹.

B8: A4-079 (VHH)
VHH: VQLQESGGGLVQPGGSLRLSCAASGTRFSINTMGWYRQAPGKQRELVANVTPAGSTNYADSVKGRFTISRDNAKNTVYLQMNSLRPEDTAVYYCHVDELRDSSWTTSNLWGQGTQVTVSS
B8: in test [1], the affinity, expressed as Kd, was 1620 nM; the koff is 0.0019 s⁻¹; the kon came to 1180 M⁻¹ s⁻¹. In test [2], this molecule returned a Kd of 382 nM, a dissociation rate constant (koff) of 0.00051 s⁻¹ and a kon of 1340 M⁻¹ s⁻¹. In test [3], the equilibrium dissociation constant (Kd) came to 211 nM, the koff came to 0.00083 s⁻¹ and the kon turned out to be 3930 M⁻¹ s⁻¹.

B9: A4-091 (VHH)
VHH: VQLQESGGGLVQPGGSLRLSCAASGSRFSINTMGWYRQRAGKQRELVATVTRDGSTTYANSVKGRFTISRDNAKNTVYLQMNSLRPEDTAVYYCHVDELRQSTWTTSNLWGQGTQVTVSS
On to B9, for which, in test [1], the equilibrium dissociation constant (Kd) is 99.4 nM, the koff was found to be 0.00091 s⁻¹ and the association rate constant (kon) worked out at 9160 M⁻¹ s⁻¹. In test [2], this molecule displayed a Kd of 34.5 nM, a koff of 0.0002 s⁻¹ and a kon of 5790 M⁻¹ s⁻¹. In test [3], binding was characterised by a dissociation constant (Kd) of 4.49 nM, the koff came to 3e-05 s⁻¹ and the kon was determined as 6690 M⁻¹ s⁻¹.

B10: A4-087 (VHH)
VHH: VQLQESGGGLVQPGGSLRLSCAASGSRFSLNTMGWYRQAPGKQRELVAAVTRGGNTNYGDFVKGRFTISRDNAKNTVYLQMNSLRPEDTAVYYCHVDELRESSWTTSNLWGQGTQVTVSS
For the molecule B10, in test [1], binding was put at a Kd of 1.05 nM, the koff was determined as 0.00012 s⁻¹ and the kon turned out to be 115000 M⁻¹ s⁻¹. For the same molecule, in test [2], the Kd was 4.13 nM, the off-rate (koff) is 0.00023 s⁻¹ and the kon was 55700 M⁻¹ s⁻¹. In test [3], this molecule had a Kd of 1.69 nM, a koff of 0.0003 s⁻¹ and a kon of 177000 M⁻¹ s⁻¹.

B11: A4-075 (VHH)
VHH: VQLQESGGGLVQSGGSLRLSCAASGSMFSLNTMGWYRQAPGKQRELVATITRGGGTNYADSVKGRFTISRDNAKNTVYLQMNSLRPEDTAVYYCHVDELRQSSWTTSNLWGQGTQVTVSS
Take B11: the Kd in test [1] stood at 9.57 nM; in test [2] it was 9.74 nM; in test [3], 28.9 nM. Moreover, the koff was found to be 0.00067 s⁻¹ in test [1], 0.00099 s⁻¹ in test [2] and 0.00086 s⁻¹ in test [3]. In addition, the kon came out at 70000 M⁻¹ s⁻¹ in test [1], 102000 M⁻¹ s⁻¹ in test [2] and 29800 M⁻¹ s⁻¹ in test [3].

B12: A4-086 (VHH)
VHH: VQLQESGGGLVQPGGSLRLSCAASGSRFSLNTMGWYRQAPGKQRELVAAVTRGGNTNYADFVKGRFTISRDNAKNTVYLQMNSLRPEDTAVYYCHVDELRESSWTTSNLWGQGTQVTVSS
With B12, the Kd in test [1] turned out to be 0.76 nM; in test [2], 1.45 nM; in test [3] it was 23.1 nM. Further, the koff in test [1] was 6e-05 s⁻¹; in test [2], 0.00026 s⁻¹; in test [3] it was 0.00107 s⁻¹. Also, the kon in test [1] is 78900 M⁻¹ s⁻¹; in test [2] it was 179000 M⁻¹ s⁻¹; in test [3], 46400 M⁻¹ s⁻¹.

B13: A4-096 (VHH)
VHH: VQLQESGGGLVQPGGSLRLSCIASGSSFSANTMGWYRQAPGKQRELVATITRGGNTNYGDSVKGRFTISRDNAKNTVYLQMNSLRPEDTAVYYCHIDEIRESTWTTSNLWGQGTQVTVSS
With B13, in test [1], binding was characterised by a dissociation constant (Kd) of 15.4 nM, the koff came out at 0.00169 s⁻¹ and the association rate constant (kon) was determined as 110000 M⁻¹ s⁻¹. In test [2], binding was put at a Kd of 5.14 nM, the koff is 0.00064 s⁻¹ and the on-rate constant (kon) amounted to 125000 M⁻¹ s⁻¹. Further, in test [3], binding was characterised by a dissociation constant (Kd) of 48.9 nM, the koff was 0.00123 s⁻¹ and the kon was found to be 25100 M⁻¹ s⁻¹.

B14: A4-094 (VHH)
VHH: VQLQESGGGLVQPGGSLRLSCVASGSIFVINTMGWYRQAPGKQRELVATVTRDGGTNYADSVKGRFTISRDNAKNTVYLQMNSLRPEDTAVYYCHIDEIRESSWTTSNLWGQGTQVTVSS
On to B14, for which the Kd was found to be 86.5 nM in test [1], 44.8 nM in test [2] and 171 nM in test [3]. Further, the dissociation rate constant (koff) amounted to 0.00058 s⁻¹ in test [1], 0.00043 s⁻¹ in test [2] and 0.00166 s⁻¹ in test [3]. Besides, the values for the kon in test [1], in test [2] and in test [3] were 6710 M⁻¹ s⁻¹, 9600 M⁻¹ s⁻¹ and 9680 M⁻¹ s⁻¹, respectively.

B15: A4-073 (VHH)
VHH: VQLQESGGGLVQPGGSLRLSCAASGSNFSINTMGWYRQAPGKQREMVATVTRGGSTNYGDFVKGRFTISRDNAKNTVYLQMNSLRPEDTAVYYCHVDEIRQSSWTTSNIWGQGTQVTVSS
For the molecule B15, the Kd in test [1] came to 1140 nM; in test [2] it was 1880 nM; in test [3] it was 1140 nM. Further, the results for the koff in test [1], in test [2] and in test [3] were 0.00619 s⁻¹, 0.00292 s⁻¹ and 0.00862 s⁻¹, respectively. Also, the values for the kon in test [1], in test [2] and in test [3] were 5420 M⁻¹ s⁻¹, 1560 M⁻¹ s⁻¹ and 7530 M⁻¹ s⁻¹, respectively.

B16: A4-078 (VHH)
VHH: VQLQESGGGLVQPGGSLRLSCLASGTMFSLNTMGWYRQAPGKQRELVATVTRGGSTNYADFVKGRFTISRDNAKNTVYLQMNSLRPEDTAVYYCHVDEVRDSSWTTSNLWGQGTQVTVSS
On to B16, for which the Kd worked out at 61.6 nM in test [1], 215 nM in test [2] and 52.7 nM in test [3]. In addition, the koff stood at 0.006 s⁻¹ in test [1], 0.00618 s⁻¹ in test [2] and 0.00932 s⁻¹ in test [3]. In addition, the kon turned out to be 97500 M⁻¹ s⁻¹ in test [1], 28800 M⁻¹ s⁻¹ in test [2] and 177000 M⁻¹ s⁻¹ in test [3].
